Where “and” joins values, the source holds several entries; their conditions need not be identical. Equal entries are not always repeated. Entries after “also recorded” stand apart in the source; their conditions may differ. Where two headings read alike, the source gives them in different places. Ends that are not written are not given here.
Tests used:
[1] = test system: insulin; settings: literature, cited from earlier work
Description: These agents routed via natural source or synthetic pathways are generally termed as amyloid inhibitors. The idea behind such anti-amyloid agent is to inhibit the creation of amyloidogenic aggregate and/to arrest the amyloid construction.

[2] = target: T1, insulin (Bos taurus, UniProt P01317); type: biochemical, bovine; settings: pH 2.6
T1 construct: Insulin consists of two polypeptide chains (Chain A –21 residues; Chain B –30 residues) held together by two disulphide bonds; purchased Sigma (St. Louis, MO)
T1 sequence (P01317 25-54 limits assumed): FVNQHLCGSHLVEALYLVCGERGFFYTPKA
T1 sequence (P01317 85-105 limits assumed): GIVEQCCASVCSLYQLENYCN

[3] = target: T1, insulin; type: biochemical, bovine; settings: pH 2.6; remark: listed apart in the source
[4] = target: T1, insulin; type: biochemical, bovine
[5] = test system: insulin fibrils; type: biochemical, bovine; settings: pH 2.6
[6] = target: T1, insulin; type: biochemical, bovine; settings: pH 2.6; remark: listed apart in the source
[7] = test system: HT1080 cells
[8] = target: T1, insulin; experiment: biochemical; type: binding, bovine; settings: apparent Kd
[9] = test system: human red blood cells; settings: red cells of human, 1 h, 250 µM

For O=c1c(O)c(-c2ccc(O)c(O)c2)oc2cc(O)cc(O)c12 [quercetin], the “effect on insulin fibrillation (in words)” value ([1]; ref [45]–[46]) is given as “interfered with the dissociation of the oligomeric insulin to monomer and also destabilized preformed insulin fibril”.

For OCC(F)(F)F [trifluoroethanol], the “effect on insulin fibrillation (in words)” value ([1]; ref [23]) is given as “on binding with insulin trimer prevented the appearance of soluble oligomers; also recorded: could delay the fibrillation of insulin by interfering with the oligomer to monomer dissociation step”.

In the case of “Insulin: 51-residue protein hormone; bovine insulin, two chains held together by two disulphide bonds”, the hydrodynamic radius [2] is reported as 2.0 nm, the “size of insulin monomer formed” value [2] is reported as 1.3 nm and the “size of large oligomer” value [2] is reported as 24 nm. For the same compound, the “Apparent Rate Constant” value [3] was 2.9 ± 0.13 h⁻¹, the “Lag Time” value [3] was 120 min and 120 ± 5 min and the “cross beta structure formation / helix loss of insulin (FT-IR, in words)” value [4] was “forms the cross beta structure indicative of fibrils beyond 2 h; also recorded: significant increases in the A1628/A1654 ratio was observed after 2 h of incubation”. For the same compound, the “β-sheet content of mature fibrils (FT-IR)” value [4] was ~60%, the “fibril morphology by TEM” value [5] was “branched insulin fibrils” and the “helix content of insulin (CD)” value [6] was 39%.

For NIVNVSLVK [NK9, NIVNVSLVK], the cytotoxicity [7] was “less than 5%”, the Kd [8] was 2200 nM and 1200 nM and the hemolysis [9] was “less than 0.5%”.

Triton X 100 [reference compound] gave a viability [7] of 20%.

Source: publication PMC3756998, “Use of a Small Peptide Fragment as an Inhibitor of Insulin Fibrillation Process: A Study by High and Low Resolution Spectroscopy” (PLoS ONE, 2013)
